These results are taken from publication PMC4632003, “Mitofilin and CHCHD6 physically interact with Sam50 to sustain cristae structure” (Scientific Reports, 2015).

The chains are these.
T1: GST-tagged Sam50 (Homo sapiens (Human), UniProt Q9Y512)
T1 chain: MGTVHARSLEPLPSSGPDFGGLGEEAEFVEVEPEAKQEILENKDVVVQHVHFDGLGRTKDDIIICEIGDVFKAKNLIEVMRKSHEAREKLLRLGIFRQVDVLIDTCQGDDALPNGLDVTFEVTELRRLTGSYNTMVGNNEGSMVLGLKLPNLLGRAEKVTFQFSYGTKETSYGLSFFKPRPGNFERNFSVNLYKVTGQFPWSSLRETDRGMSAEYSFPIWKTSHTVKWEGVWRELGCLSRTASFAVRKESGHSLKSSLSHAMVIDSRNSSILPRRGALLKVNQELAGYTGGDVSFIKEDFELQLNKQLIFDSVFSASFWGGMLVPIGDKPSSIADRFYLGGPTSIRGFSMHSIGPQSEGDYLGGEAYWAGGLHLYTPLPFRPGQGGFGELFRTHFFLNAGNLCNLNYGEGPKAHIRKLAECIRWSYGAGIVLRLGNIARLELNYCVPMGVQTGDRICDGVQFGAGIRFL

T2: His-tagged Mitofilin 123-758 (human, UniProt Q16891 123-758)
T2 construct: Mitofilin, human, residues 123-758, cloned into pET-28a; The methods of the pull-down name 'GST-Mitofilin' where results, legend and plasmids say His-tagged Mitofilin 123-758; its purification is not described; also called His-Mitofilin^123–758; source: E. coli
T2 sequence (looked up): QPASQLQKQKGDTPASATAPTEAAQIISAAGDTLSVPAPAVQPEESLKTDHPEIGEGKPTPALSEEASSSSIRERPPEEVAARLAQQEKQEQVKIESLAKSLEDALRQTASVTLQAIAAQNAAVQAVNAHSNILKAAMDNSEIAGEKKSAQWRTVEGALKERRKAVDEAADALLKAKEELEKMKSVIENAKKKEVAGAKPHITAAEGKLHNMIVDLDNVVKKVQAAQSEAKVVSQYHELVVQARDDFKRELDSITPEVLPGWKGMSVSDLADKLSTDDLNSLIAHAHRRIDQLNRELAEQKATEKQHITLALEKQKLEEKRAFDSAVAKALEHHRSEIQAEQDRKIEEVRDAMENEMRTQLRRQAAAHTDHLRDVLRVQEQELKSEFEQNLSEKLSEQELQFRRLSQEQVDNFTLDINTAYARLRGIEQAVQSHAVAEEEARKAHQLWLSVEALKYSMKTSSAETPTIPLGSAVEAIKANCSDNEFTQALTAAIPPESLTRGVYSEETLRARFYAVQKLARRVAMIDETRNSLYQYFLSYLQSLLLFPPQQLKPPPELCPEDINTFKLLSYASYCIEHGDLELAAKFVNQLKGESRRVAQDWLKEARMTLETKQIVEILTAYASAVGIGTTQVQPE

B1: His-tagged CHCHD6 NΔ15 variant (domain or fragment, human, UniProt Q9BRQ6 16-235, looked up)
chain: VDEEERVRVLQGVRLSENVVNRMKEPSSPPPAPTSSTFGLQDGNLRAPHKESTLPRSGSSGGQQPSGMKEGVKRYEQEHAAIQDKLFQVAKREREAATKHSKASLPTGEGSISHEEQKSVRLARELESREAELRRRDTFYKEQLERIERKNAEMYKLSSEQFHEAASKMESTIKPRRVEPVCSGLQAQILHCYRDRPHEVLLCSDLVKAYQRCVSAAHKG
notes: CHCHD6, human, deletion variant that lacks the N-terminal 15 amino acids; cloned into pET-28a; source: E. coli (BL21), purified (Nickel-NTA agarose); not shown: His tag, N-terminal, kept
B2: His-tagged full-length CHCHD6 (natural protein, human, UniProt Q9BRQ6 1-235, looked up)
chain: MGSTESSEGRRVSFGVDEEERVRVLQGVRLSENVVNRMKEPSSPPPAPTSSTFGLQDGNLRAPHKESTLPRSGSSGGQQPSGMKEGVKRYEQEHAAIQDKLFQVAKREREAATKHSKASLPTGEGSISHEEQKSVRLARELESREAELRRRDTFYKEQLERIERKNAEMYKLSSEQFHEAASKMESTIKPRRVEPVCSGLQAQILHCYRDRPHEVLLCSDLVKAYQRCVSAAHKG
notes: CHCHD6, human, full length, cloned into pET-28a; also called His-CHCHD6; source: E. coli (BL21), purified (Nickel-NTA agarose)
B3: GST-tagged Sam50 (natural protein, human, UniProt Q9Y512 1-469, looked up)
chain: T1 chain
notes: Sam50, human, full-length cDNA cloned into pGEX-6P-1; also called GST-Sam50; source: E. coli (BL21), purified (glutathione agarose)
B4: His-tagged CHCHD6 CΔ46 variant (protein)
chain: MGSTESSEGRRVSFGVDEEERVRVLQGVRLSENVVNRMKEPSSPPPAPTSSTFGLQDGNLRAPHKESTLPRSGSSGGQQPSGMKEGVKRYEQEHAAIQDKLFQVAKREREAATKHSKASLPTGEGSISHEEQKSVRLARELESREAELRRRDTFYKEQLERIERKNAEMYKLSSEQFHEAASKMESTIK

Assay [1] concerns the target T1, GST-tagged Sam50. Kind of assay: GST pull-down.
The target in assay [2] is B3. Kind of assay: pull-down; GST pull-down: 10 μg purified GST-tagged protein, 10 μg His-tagged protein and glutathione Sepharose 4B in 1 ml PBS with protease inhibitor, overnight at 4 °C, washed five times with cold PBS; Western blot. The following applies: both partners purified. On the technique in general: In western blotting, separated proteins are transferred to a membrane and probed.

Assay [3] addresses T2, His-tagged Mitofilin 123-758. The description is as above. Conditions: both partners purified.

Regarding B1, the binding result with GST-tagged Sam50 [1] and with GST-tagged Sam50 [2] was “binds” each time.

Turning to B2, the binding result in the assay with GST-tagged Sam50 [1] and in the assay with GST-tagged Sam50 [2] was “binds” in each case.

Turning to B3, in assay [3], the binding result is “binds”.

As for B4, the binding result in the assay with GST-tagged Sam50 [1] is reported as “no binding”.
